Measured values from PMC4739419, “Mutations in the nucleotide binding and hydrolysis domains of Helicobacter pylori MutS2 lead to altered biochemical activities and inactivation of its in vivo function” (BMC Microbiology, 2016).
Substitutions are numbered along the chain they refer to. Names may count otherwise. Like-named read-outs stand apart in the source and are kept apart here.

B1: HpMutS2-E413A (enzyme)
chain: MSDAPKRSLNPTLMMNNNNTPPKPLEESLDLKEFIALFKTFFAKERDTIALENDLKQTFTYLNEVDAIGLPTPKSVKESDLIIIKLTKLGTLHLDEIFEIVKRLHYIVVLQNAFKTFTHLKFHERLNAIVLPPFFNDLIALFDDEGKIKQGANATLDALNESLNRLKKESVKIIHHYARSKELAPYLVDTQSHLKHGYECLLLKSGFSGAIKGVVLERSANGYFYLLPESAQKIAQKIAQIGNEIDCCIVEMCQTLSHSLQKHLLFLKFLFKEFDFLDSLQARLNFAKAYNLEFVMPSFTQKKMILENFSHPILKEPKPLNLKFEKSMLAVTGVNAGGKTMLLKSLLSAAFLSKHLIPMKINAHHSIIPYFKEIHAIINDPQNSANNISTFAGRMKQFSALLSKENMLLGVDAIELGTDADEASSLYKTLLEKLLKQNNQIIITTHHKRLSVLMAENKEVELLAALYDEEKERPTYTFLKGVIGKSYAFETALRYGVPHFLIEKAKTFYGEDKEKLNVLIENSSALERELKQKNEHLENALKEQEYLKNAWLLEMEKQKEIFHNKKLELEKSYQQALNILKSEVASKDTSSMHKEIHKASEILSKHKTNQEIPQIITNFQANEKARYKNESVLIVQILDKGYYWIETELGMRLKAHGSLLKKIQKPPKNKFKPPKTTIPKPKEASLRLDLRGQRSEEALDLLDAFLNDALLGGFEEVLICHGKGSGILEKFVKEFLKNHPKVVSFSDAPINLGGSGVKIVKL
notes: also called Walker-B mutant
B2: HpMutS2: Helicobacter pylori MutS2 (1-762), C-terminally His6-tagged wild-type protein, nuclease and ABC ATPase (protein)
chain: B1 chain with A413E
modifications: left off: His6, C-terminal, state not stated
notes: Helicobacter pylori MutS2 (1-762), C-terminally His6-tagged wild-type protein, nuclease and ABC ATPase
B3: HpMutS2-G338R (protein)
chain: B1 chain with G338R, A413E

Assays:
Single-stranded DNA = test: Electrophoretic mobility shift assay (EMSA); assay type: binding; conditions: for fold reduced affinity compared to wild-type: no nucleotide; for Kd: read-out: DNA binding affinity (dissociation constant)
Protocol: (§1) Fig. 5 Effect of nucleotide cofactors on DNA binding activity of HpMutS2 and mutants. Electrophoretic mobility shift assays were performed by incubating radiolabeled DNA substrates (0.16 nM) with increasing concentrations of proteins as described in Methods section. Nucleotides (1 mM) were added separately to the reaction mixtures. After incubation of 30 min on ice, the reaction mixtures were electrophoresed on native PAGE (8 %) at 4 °C. (a, panel 1–6) Interaction of HpMutS2 and mutants with single-stranded DNA. b-g Plots of percentage of bound DNA substrate (ssDNA and Holliday junction) versus protein concentration. The percentage binding was calculated by measuring the depletion in substrate DNA considering DNA without protein as 100 %. Error bars represent standard deviation from two or more different experiments. Schematic representation of DNA substrates used are shown at the left side of figures
(§2) Radiolabeled DNA substrates (0.16 nM) were incubated with increasing concentrations of HpMutS2 and mutants in buffer A with 1X BSA (0.1 μg/μl). ATP, ADP, and ATPγS (1 mM each) were added separately to the reaction mixture. The NaCl concentration was maintained to 110 mM by adding storage buffer C to the reaction mixture. After incubation of 30 min on ice, the reaction mixtures were electrophoresed on native PAGE (8 %) at 4 °C. The gels were transferred on to Whatman 3 mm paper and dried under vacuum at 80 °C for 45 min. The gels were visualized by phosphorimaging and quantified using Image Gauge (Version 3.0). The dissociation constants were determined by non-linear regression analysis and calculated by plotting the percentage of bound DNA versus concentration of protein using “One site - Specific binding with Hill slope” equation of the GraphPad Prism 5 software.

Holliday junction = test: Electrophoretic mobility shift assay (EMSA); assay type: binding; conditions: for Kd: read-out: DNA binding affinity (dissociation constant); for fold reduced affinity compared to wild-type: no nucleotide
Protocol: as §1, §2

[1] = Thermal denaturation monitored by CD at 222 nm; assay type: physicochemical; conditions: for temperature of 50 % unfolding: 25–80 °C; for thermal stability compared to the other variants: higher temperatures
Protocol: Fig. 4 Nucleotide and mutation induced conformational changes in HpMutS2. a Limited proteolysis. Proteins (4 μM) either free or pre-incubated with nucleotides (1 mM) were incubated with chymotrypsin (1.25 ng) for 30 min at 37 °C. All proteolysis reactions were performed in 1X buffer A lacking magnesium. Reactions were stopped by adding a protease inhibitor cocktail and the products were separated on SDS-PAGE (10 %). Lane M: Molecular weight marker. b Thermal stability profiles of wild-type HpMutS2, HpMutS2-G338R, and HpMutS2-E413A. Proteins (1 μM) dialyzed in 50 mM Tris-Cl and 100 mM NaCl were subjected to thermal denaturation and spectra were recorded at 222 nm using Jasco-815 spectropolarimeter
Freshly prepared proteins were dialyzed twice in buffer B for 4–6 h with at least two changes of the buffer. Far-UV CD spectra of proteins (1 μM) were obtained using a Jasco-815 spectropolarimeter equipped with a Peltier stage (Japan Spectroscopic Co., Japan) at 25 °C. The spectra were recorded between 200–300 nm with 20 mdeg sensitivity at a scan speed of 50 nm using 2 mm path length cuvette with a bandwidth of 2 nm. Control titrations were performed and all the CD spectra were corrected by subtracting control spectra. Thermal denaturation of the proteins was monitored at single wavelength (222 nm) by increasing temperature from 25 °C-80 °C. The percentage of unfolded protein was calculated by considering the protein at 25 °C as 100 % folded.

Molecule	fold reduced affinity compared to wild-type (Single-stranded DNA)	Kd (Holliday junction; + ADP 1 mM) [nM]	Kd (Holliday junction; + ATP 1 mM) [nM]	Kd (Holliday junction; No nucleotide) [nM]	fold reduced affinity compared to wild-type (Holliday junction)	temperature of 50 % unfolding [1]	thermal stability compared to the other variants [1]	Kd (Single-stranded DNA; + ADP 1 mM) [nM]	Kd (Single-stranded DNA; + ATPγS 1 mM) [nM]	fold reduced ssDNA binding in presence of ATP (Single-stranded DNA; ATP 1 mM, at lower concentrations of protein)	Kd (Single-stranded DNA; No nucleotide) [nM]	Kd (Holliday junction; + ATPγS 1 mM) [nM]	Kd (Single-stranded DNA; + ATP 1 mM) [nM]
B1	> 4 fold	46.4 ± 5.6	31.7 ± 3.34	30.8 ± 1.97	~ 2 fold	~ 50 °C	more unstable						
B2		22.6 ± 1.39	20.8 ± 2.95	14.4 ± 0.82		~ 50 °C		17.3 ± 2.89	11.4 ± 0.19	~ 5 fold	21.5 ± 2.28	22.5 ± 1.23	
B3	~ 1.5 fold	34 ± 5.31	32 ± 4.34	21.4 ± 0.93	~ 1.5 fold		more stable at up to 80 °C	23.9 ± 2.91			32.4 ± 3.32		30.7 ± 3.43
